# Assay results: patent US20100120124A1 (CONSEJO SUPERIOR DE INVESTIGACIONES CIENTIFICAS, published 2010)
# T1: α-amylase (pig pancreatic enzyme α-amylase, Sigma) (pig, UniProt P00690 16-511)
# T1 sequence: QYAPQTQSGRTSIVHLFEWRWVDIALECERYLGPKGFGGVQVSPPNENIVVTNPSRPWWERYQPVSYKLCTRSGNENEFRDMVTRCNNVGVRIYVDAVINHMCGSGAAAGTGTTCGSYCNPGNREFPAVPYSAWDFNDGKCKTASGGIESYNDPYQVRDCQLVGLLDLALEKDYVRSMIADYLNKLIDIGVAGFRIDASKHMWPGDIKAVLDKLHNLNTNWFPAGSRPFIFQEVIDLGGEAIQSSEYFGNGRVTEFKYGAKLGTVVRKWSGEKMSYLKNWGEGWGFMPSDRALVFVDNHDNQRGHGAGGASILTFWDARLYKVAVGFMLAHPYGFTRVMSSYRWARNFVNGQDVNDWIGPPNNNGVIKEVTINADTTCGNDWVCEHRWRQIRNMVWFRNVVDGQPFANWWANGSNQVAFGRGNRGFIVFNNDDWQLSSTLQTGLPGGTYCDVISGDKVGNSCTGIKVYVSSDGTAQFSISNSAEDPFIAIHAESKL
# B1: fusion antibody EspF-Vamy (EspF20 signal fused to camel VHH anti-amylase with C-terminal 6xhis and E-tag) (VHH)
# VHH: QVQLVESWGGSVQAGGSLRLSCTAPGFTSNSCRMDWYRQAAGKQREWVSSISTDGRTSYADSVKGRFTISKDKAKDTVYLQMNSLKPEDTAIYYCAVRTNGYRPQSHEFRYWGPGTQVTVSS
# notes: also called EspF20-Vamy; product of plasmid pEspFVamy
# B2: fusion antibody EspF-Vgfp (EspF20 signal fused to camel VHH anti-GFP with C-terminal 6xhis and E-tag) (VHH)
# VHH: QVQLVESGGALVQPGGSLRLSCAASGFPVNRYSMRWYRQAPGKEREWVAGMSSAGDRSSYEDSVKGRFTISRDDARNTVYLQMNSLKPEDTAVYYCNVNVGFEYWGQGTQVTVSS
# notes: also called product of plasmid pEspFVgfp
# Experiments:
# [1] = target: T1, α-amylase (pig pancreatic enzyme …); experiment: ELISA, supernatant of EPEC culture on coated antigen, anti-E-tag-POD
# [2] = target: T2, bovine seroalbumin (BSA, Roche) (bovine, UniProt P02769 25-607); experiment: as above
# T2 construct: also called bovine albumin
# T2 sequence (P02769 25-607 limits assumed): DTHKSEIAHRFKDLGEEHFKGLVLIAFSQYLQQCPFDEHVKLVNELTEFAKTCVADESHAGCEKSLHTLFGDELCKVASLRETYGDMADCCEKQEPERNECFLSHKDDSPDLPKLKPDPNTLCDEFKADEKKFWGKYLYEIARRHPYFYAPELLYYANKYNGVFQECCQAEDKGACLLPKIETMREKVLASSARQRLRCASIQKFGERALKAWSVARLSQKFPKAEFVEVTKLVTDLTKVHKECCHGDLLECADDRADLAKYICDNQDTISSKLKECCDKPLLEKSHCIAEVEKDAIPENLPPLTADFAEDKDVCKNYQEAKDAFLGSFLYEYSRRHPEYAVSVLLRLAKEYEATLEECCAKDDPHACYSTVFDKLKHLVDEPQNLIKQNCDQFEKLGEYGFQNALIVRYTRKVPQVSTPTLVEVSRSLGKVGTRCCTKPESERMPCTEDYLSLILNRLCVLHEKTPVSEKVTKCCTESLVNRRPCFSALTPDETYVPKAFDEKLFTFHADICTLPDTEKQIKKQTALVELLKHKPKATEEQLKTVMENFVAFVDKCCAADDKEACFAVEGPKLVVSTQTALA
Binder,binding result [1],binding result [2]
B1,binds,no binding
B2,no binding,no binding
